This is an account of results in patent US20130336893A1 (Sanofi, published 2013).

Experiment [1] deals with human glucagon receptor (human, UniProt P47871 26-477). The experiment in a line: cell-based or functional assay.
Experiment [2] concerns the target human GLP-1 receptor (human, UniProt P43220 24-463). Put plainly: cell-based or functional assay.

*1 amine or outer side, *2 acyl side, *3 side chain or, on linkers, in order; H or OH if unused. Where no end group is shown, it is not given here. Side-chain parts run from the residue outwards. [ ]: non-standard residue; d: D form. The star is where a group is joined. γGlu = O=C(O)[C@H](CCC(=O)[*:2])N[*:1]; Palmitoyl = CCCCCCCCCCCCCCCC(=O)*; Aib = CC(C)(N)C(=O)O

human glucagon receptor, sequence (P47871 26-477): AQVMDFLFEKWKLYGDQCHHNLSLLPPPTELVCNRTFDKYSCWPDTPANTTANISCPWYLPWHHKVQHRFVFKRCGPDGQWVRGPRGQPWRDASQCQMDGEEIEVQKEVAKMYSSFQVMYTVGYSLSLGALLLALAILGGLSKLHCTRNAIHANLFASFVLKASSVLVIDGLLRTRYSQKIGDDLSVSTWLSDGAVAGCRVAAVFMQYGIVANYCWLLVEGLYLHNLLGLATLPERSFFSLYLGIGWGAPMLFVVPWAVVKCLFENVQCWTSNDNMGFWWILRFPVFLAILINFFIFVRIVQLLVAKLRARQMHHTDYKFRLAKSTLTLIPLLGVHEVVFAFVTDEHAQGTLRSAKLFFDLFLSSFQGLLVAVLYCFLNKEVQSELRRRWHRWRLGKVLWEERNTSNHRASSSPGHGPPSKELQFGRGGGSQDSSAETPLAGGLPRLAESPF

B1: SEQ ID NO: (61) (peptide)
peptide: H[dS]QGTFTSDLSKQMESRRAQDFIEWLKNGGPSSGAPPPSK([γGlu-Palmitoyl])-NH2
modifications: N-terminus assumed
SMILES: CCCCCCCCCCCCCCCC(=O)N[C@@H](CCC(=O)NCCCC[C@H](NC(=O)[C@H](CO)NC(=O)[C@@H]1CCCN1C(=O)[C@@H]1CCCN1C(=O)[C@@H]1CCCN1C(=O)[C@H](C)NC(=O)CNC(=O)[C@H](CO)NC(=O)[C@H](CO)NC(=O)[C@@H]1CCCN1C(=O)CNC(=O)CNC(=O)[C@H](CC(N)=O)NC(=O)[C@H](CCCCN)NC(=O)[C@H](CC(C)C)NC(=O)[C@H](Cc1c[nH]c2ccccc12)NC(=O)[C@H](CCC(=O)O)NC(=O)[C@@H](NC(=O)[C@H](Cc1ccccc1)NC(=O)[C@H](CC(=O)O)NC(=O)[C@H](CCC(N)=O)NC(=O)[C@H](C)NC(=O)[C@H](CCCNC(=N)N)NC(=O)[C@H](CCCNC(=N)N)NC(=O)[C@H](CO)NC(=O)[C@H](CCC(=O)O)NC(=O)[C@H](CCSC)NC(=O)[C@H](CCC(N)=O)NC(=O)[C@H](CCCCN)NC(=O)[C@H](CO)NC(=O)[C@H](CC(C)C)NC(=O)[C@H](CC(=O)O)NC(=O)[C@H](CO)NC(=O)[C@@H](NC(=O)[C@H](Cc1ccccc1)NC(=O)[C@@H](NC(=O)CNC(=O)[C@H](CCC(N)=O)NC(=O)[C@@H](CO)NC(=O)[C@@H](N)Cc1c[nH]cn1)[C@@H](C)O)[C@@H](C)O)[C@@H](C)CC)C(N)=O)C(=O)O
For the molecule B1, the “EC50 hGlucagonR (cAMP formation)” value in experiment [1] was 30.4 pM. Moreover, the “EC50 hGLP-1R (cAMP formation)” value in experiment [2] came to 4.2 pM.

B2: SEQ ID NO: (65) (peptide)
peptide: H[dS]QGTFTSDLSKQMDSRRAQDFIEWLKSGGPSSGAPPPSK([γGlu-Palmitoyl])-NH2
modifications: N-terminus assumed
SMILES: CCCCCCCCCCCCCCCC(=O)N[C@@H](CCC(=O)NCCCC[C@H](NC(=O)[C@H](CO)NC(=O)[C@@H]1CCCN1C(=O)[C@@H]1CCCN1C(=O)[C@@H]1CCCN1C(=O)[C@H](C)NC(=O)CNC(=O)[C@H](CO)NC(=O)[C@H](CO)NC(=O)[C@@H]1CCCN1C(=O)CNC(=O)CNC(=O)[C@H](CO)NC(=O)[C@H](CCCCN)NC(=O)[C@H](CC(C)C)NC(=O)[C@H](Cc1c[nH]c2ccccc12)NC(=O)[C@H](CCC(=O)O)NC(=O)[C@@H](NC(=O)[C@H](Cc1ccccc1)NC(=O)[C@H](CC(=O)O)NC(=O)[C@H](CCC(N)=O)NC(=O)[C@H](C)NC(=O)[C@H](CCCNC(=N)N)NC(=O)[C@H](CCCNC(=N)N)NC(=O)[C@H](CO)NC(=O)[C@H](CC(=O)O)NC(=O)[C@H](CCSC)NC(=O)[C@H](CCC(N)=O)NC(=O)[C@H](CCCCN)NC(=O)[C@H](CO)NC(=O)[C@H](CC(C)C)NC(=O)[C@H](CC(=O)O)NC(=O)[C@H](CO)NC(=O)[C@@H](NC(=O)[C@H](Cc1ccccc1)NC(=O)[C@@H](NC(=O)CNC(=O)[C@H](CCC(N)=O)NC(=O)[C@@H](CO)NC(=O)[C@@H](N)Cc1c[nH]cn1)[C@@H](C)O)[C@@H](C)O)[C@@H](C)CC)C(N)=O)C(=O)O
For B2, the “EC50 hGlucagonR (cAMP formation)” value in experiment [1] amounted to 5.7 pM. Besides, the “EC50 hGLP-1R (cAMP formation)” value in experiment [2] is 15 pM.

B3: SEQ ID NO: (70) (peptide)
peptide: H[dS]QGTFTSDLSKQMDERRAKDFIEWLKNGGPSSGAPPPSK([γGlu-Palmitoyl])-NH2
modifications: N-terminus assumed
SMILES: CCCCCCCCCCCCCCCC(=O)N[C@@H](CCC(=O)NCCCC[C@H](NC(=O)[C@H](CO)NC(=O)[C@@H]1CCCN1C(=O)[C@@H]1CCCN1C(=O)[C@@H]1CCCN1C(=O)[C@H](C)NC(=O)CNC(=O)[C@H](CO)NC(=O)[C@H](CO)NC(=O)[C@@H]1CCCN1C(=O)CNC(=O)CNC(=O)[C@H](CC(N)=O)NC(=O)[C@H](CCCCN)NC(=O)[C@H](CC(C)C)NC(=O)[C@H](Cc1c[nH]c2ccccc12)NC(=O)[C@H](CCC(=O)O)NC(=O)[C@@H](NC(=O)[C@H](Cc1ccccc1)NC(=O)[C@H](CC(=O)O)NC(=O)[C@H](CCCCN)NC(=O)[C@H](C)NC(=O)[C@H](CCCNC(=N)N)NC(=O)[C@H](CCCNC(=N)N)NC(=O)[C@H](CCC(=O)O)NC(=O)[C@H](CC(=O)O)NC(=O)[C@H](CCSC)NC(=O)[C@H](CCC(N)=O)NC(=O)[C@H](CCCCN)NC(=O)[C@H](CO)NC(=O)[C@H](CC(C)C)NC(=O)[C@H](CC(=O)O)NC(=O)[C@H](CO)NC(=O)[C@@H](NC(=O)[C@H](Cc1ccccc1)NC(=O)[C@@H](NC(=O)CNC(=O)[C@H](CCC(N)=O)NC(=O)[C@@H](CO)NC(=O)[C@@H](N)Cc1c[nH]cn1)[C@@H](C)O)[C@@H](C)O)[C@@H](C)CC)C(N)=O)C(=O)O
With B3, the “EC50 hGlucagonR (cAMP formation)” value in experiment [1] was found to be 17.2 pM. Besides, the “EC50 hGLP-1R (cAMP formation)” value in experiment [2] worked out at 5 pM.

In the case of H[dS]QGTFTSDLSKQMESRRAQDFIEWLK[Aib]GGPSSGAPPPSK([γGlu-Palmitoyl])-NH2 [SEQ ID NO: (73)], the “EC50 hGlucagonR (cAMP formation)” value in experiment [1] came to 21.2 pM. In addition, the “EC50 hGLP-1R (cAMP formation)” value in experiment [2] came to 4.4 pM.

B4: SEQ ID NO: (69) (peptide)
peptide: H[dS]QGTFTSDLSKQMDKRRAQDFIEWLKNGGPSSGAPPPSK([γGlu-Palmitoyl])-NH2
modifications: N-terminus assumed
SMILES: CCCCCCCCCCCCCCCC(=O)N[C@@H](CCC(=O)NCCCC[C@H](NC(=O)[C@H](CO)NC(=O)[C@@H]1CCCN1C(=O)[C@@H]1CCCN1C(=O)[C@@H]1CCCN1C(=O)[C@H](C)NC(=O)CNC(=O)[C@H](CO)NC(=O)[C@H](CO)NC(=O)[C@@H]1CCCN1C(=O)CNC(=O)CNC(=O)[C@H](CC(N)=O)NC(=O)[C@H](CCCCN)NC(=O)[C@H](CC(C)C)NC(=O)[C@H](Cc1c[nH]c2ccccc12)NC(=O)[C@H](CCC(=O)O)NC(=O)[C@@H](NC(=O)[C@H](Cc1ccccc1)NC(=O)[C@H](CC(=O)O)NC(=O)[C@H](CCC(N)=O)NC(=O)[C@H](C)NC(=O)[C@H](CCCNC(=N)N)NC(=O)[C@H](CCCNC(=N)N)NC(=O)[C@H](CCCCN)NC(=O)[C@H](CC(=O)O)NC(=O)[C@H](CCSC)NC(=O)[C@H](CCC(N)=O)NC(=O)[C@H](CCCCN)NC(=O)[C@H](CO)NC(=O)[C@H](CC(C)C)NC(=O)[C@H](CC(=O)O)NC(=O)[C@H](CO)NC(=O)[C@@H](NC(=O)[C@H](Cc1ccccc1)NC(=O)[C@@H](NC(=O)CNC(=O)[C@H](CCC(N)=O)NC(=O)[C@@H](CO)NC(=O)[C@@H](N)Cc1c[nH]cn1)[C@@H](C)O)[C@@H](C)O)[C@@H](C)CC)C(N)=O)C(=O)O
Regarding B4, the “EC50 hGlucagonR (cAMP formation)” value in experiment [1] amounted to 5.9 pM. The “EC50 hGLP-1R (cAMP formation)” value in experiment [2] is 7.6 pM.

B5: SEQ ID NO: (64) (peptide)
peptide: H[dS]QGTFTSDLSKQMESRRAQDFIEWLKNAGPSSGAPPPSK([γGlu-Palmitoyl])-NH2
modifications: N-terminus assumed
SMILES: CCCCCCCCCCCCCCCC(=O)N[C@@H](CCC(=O)NCCCC[C@H](NC(=O)[C@H](CO)NC(=O)[C@@H]1CCCN1C(=O)[C@@H]1CCCN1C(=O)[C@@H]1CCCN1C(=O)[C@H](C)NC(=O)CNC(=O)[C@H](CO)NC(=O)[C@H](CO)NC(=O)[C@@H]1CCCN1C(=O)CNC(=O)[C@H](C)NC(=O)[C@H](CC(N)=O)NC(=O)[C@H](CCCCN)NC(=O)[C@H](CC(C)C)NC(=O)[C@H](Cc1c[nH]c2ccccc12)NC(=O)[C@H](CCC(=O)O)NC(=O)[C@@H](NC(=O)[C@H](Cc1ccccc1)NC(=O)[C@H](CC(=O)O)NC(=O)[C@H](CCC(N)=O)NC(=O)[C@H](C)NC(=O)[C@H](CCCNC(=N)N)NC(=O)[C@H](CCCNC(=N)N)NC(=O)[C@H](CO)NC(=O)[C@H](CCC(=O)O)NC(=O)[C@H](CCSC)NC(=O)[C@H](CCC(N)=O)NC(=O)[C@H](CCCCN)NC(=O)[C@H](CO)NC(=O)[C@H](CC(C)C)NC(=O)[C@H](CC(=O)O)NC(=O)[C@H](CO)NC(=O)[C@@H](NC(=O)[C@H](Cc1ccccc1)NC(=O)[C@@H](NC(=O)CNC(=O)[C@H](CCC(N)=O)NC(=O)[C@@H](CO)NC(=O)[C@@H](N)Cc1c[nH]cn1)[C@@H](C)O)[C@@H](C)O)[C@@H](C)CC)C(N)=O)C(=O)O
Turning to B5, the “EC50 hGlucagonR (cAMP formation)” value in experiment [1] came out at 67 pM. Besides, the “EC50 hGLP-1R (cAMP formation)” value in experiment [2] came to 21.9 pM.

B6: SEQ ID NO: (62) (peptide)
peptide: H[Aib]QGTFTSDLSKQMESRRAQDFIEWLKNGGPSSGAPPPSK([γGlu-Palmitoyl])-NH2
modifications: N-terminus assumed
SMILES: CCCCCCCCCCCCCCCC(=O)N[C@@H](CCC(=O)NCCCC[C@H](NC(=O)[C@H](CO)NC(=O)[C@@H]1CCCN1C(=O)[C@@H]1CCCN1C(=O)[C@@H]1CCCN1C(=O)[C@H](C)NC(=O)CNC(=O)[C@H](CO)NC(=O)[C@H](CO)NC(=O)[C@@H]1CCCN1C(=O)CNC(=O)CNC(=O)[C@H](CC(N)=O)NC(=O)[C@H](CCCCN)NC(=O)[C@H](CC(C)C)NC(=O)[C@H](Cc1c[nH]c2ccccc12)NC(=O)[C@H](CCC(=O)O)NC(=O)[C@@H](NC(=O)[C@H](Cc1ccccc1)NC(=O)[C@H](CC(=O)O)NC(=O)[C@H](CCC(N)=O)NC(=O)[C@H](C)NC(=O)[C@H](CCCNC(=N)N)NC(=O)[C@H](CCCNC(=N)N)NC(=O)[C@H](CO)NC(=O)[C@H](CCC(=O)O)NC(=O)[C@H](CCSC)NC(=O)[C@H](CCC(N)=O)NC(=O)[C@H](CCCCN)NC(=O)[C@H](CO)NC(=O)[C@H](CC(C)C)NC(=O)[C@H](CC(=O)O)NC(=O)[C@H](CO)NC(=O)[C@@H](NC(=O)[C@H](Cc1ccccc1)NC(=O)[C@@H](NC(=O)CNC(=O)[C@H](CCC(N)=O)NC(=O)C(C)(C)NC(=O)[C@@H](N)Cc1c[nH]cn1)[C@@H](C)O)[C@@H](C)O)[C@@H](C)CC)C(N)=O)C(=O)O
Take B6: the “EC50 hGlucagonR (cAMP formation)” value in experiment [1] was determined as 130 pM. Moreover, in experiment [2], the “EC50 hGLP-1R (cAMP formation)” value was 6.3 pM.
